Results on six substances are retold here after paper PMC2913173 (Journal of molecular biology, 2009).

Ends that are not written are not given here. eCPX = enhanced circularly permuted OmpX display protein

The first experiment deals with T1, Bcl-xL (Homo sapiens, UniProt Q07817, DEL46-85). Kind of experiment: Cell surface display equilibrium binding assay with flow cytometry. The settings on record: cells displaying Bak–eCPX fusions, biotinylated Bcl-xL and SAPE. Background: In flow cytometry, cells or beads pass a laser one at a time.
Consider “mut8: Bak(72–87) library variant: position 74 L, 78 L, 81 F, 85 F (GQLGRQLAIFGDDFNR-eCPX)”, for which the “Binding to Bcl-xL in words (fluorescence of cell population)” value (shortened to “Binding to Bcl-xL in words”) is “highest fluorescence”.
On the same count and under the same terms, the same measure for “Bak(72–85): Bak(72–87) with deletion of residues N86 and R87, eCPX fusion (GQVGRQLAIIGDDI-eCPX)”: “reduction in binding to nearly background levels”; for “Bak(72–117): eCPX fusion protein comprising helices α3 and α4 of Bak (GQVGRQLAIIGDDINRRYDSEFQTMLQHLQPTAENAYEYFTKIATS-eCPX)”: “fluorescence only slightly above background levels”.
Regarding “Bak(74–87) GG: eCPX–Bak(74–87) in which the GQ sequence preceding the Bak peptide was changed to GG (GGVGRQLAIIGDDINR-eCPX)”, the “Binding to Bcl-xL in words” value was “bound Bcl-xL equally as well as Bak(72–87)”.
As for “L78A: Bak(72–87) with the critical leucine in position 78 changed to alanine, displayed on eCPX (GQVGRQAAIIGDDINR-eCPX) [Construct L78A]”, the “Binding to Bcl-xL in words” value is given as “only background fluorescence”.
Take “mut7: Bak(72–87) library variant: position 74 L, 78 L, 81 L, 85 F (GQLGRQLAILGDDFNR-eCPX)”: the “Binding to Bcl-xL in words” value is “highest fluorescence”.

The target in the next experiment is T1, Bcl-xL.
Assay: not given
The note with it: L78A amino acid change relative to Bak(72–87); cited from earlier work.
Turning to “L78A: Bak(72–87) with the critical leucine in position 78 changed to alanine, displayed on eCPX (GQVGRQAAIIGDDINR-eCPX) [Construct L78A]”, the “Decrease in binding affinity of Bak(72–87) for Bcl-xL” value is approximately 1000 fold.
